{"source": "patent US20240109972A1", "about": "“ANTIBODY AND TAXANE COMBINATION THERAPY” (Genmab A/S, priority 2020, published 2024)", "key": {"[1]": {"test": "GEN1046 Phase I dose escalation, safety and dose finding", "assay_type": "in vivo", "text": "The recommended phase 2 dose (RP2D) was based on a review of the available safety and dosing information and could be lower than the maximum tolerated dose (MTD)."}, "metastatic NSCLC": {"test_system": "metastatic NSCLC", "test": "GEN1046 in combination with docetaxel in metastatic NSCLC subjects, efficacy (RECIST v1.1)", "assay_type": "in vivo, human", "details": "six subjects dosed with GEN1046 and 75 mg/m^2 Docetaxel", "procedure": "Docetaxel was administered at a dose of 55 mg/m^2 or 75 mg/m^2 depending on the number of prior Dose Limiting Toxicities observed. The maximum tested dose of docetaxel was be 75 mg/m^2.\nThe following inclusion criteria applied to the combination arm (NSCLC): GEN1046 in combination with docetaxel: • NSCLC subjects of any histology may be enrolled. Subjects with a histological or cytological diagnosis of non-squamous NSCLC must not have an EGFR-sensitizing mutation and/or ALK translocation/ROS1 rearrangement. EGFR sensitizing mutations are those mutations that are amenable to treatment with an approved TKI. Documentation of EGFR and ALK status should be available per local assessment.\nIn one of the six patients the first post-baseline scan was indicative of response according to RECIST Criteria v1.1."}}, "note": "“Also recorded” adds a separate entry of the source."}
{"substance": "GEN1046: PD-L1×4-1BB bispecific antibody: PD-L1-547-FEAL combined with CD137-009-HC7LC2-FEAR (SEQ ID NOs: 1, 5, 21, 19; 8, 12, 22, 20)", "values": [{"measurement": "Doses administered safely", "setting": "[1]; 1Q3W", "result": "up to 1200 mg"}, {"measurement": "Patients with dose limiting toxicities (DLTs)", "setting": "[1]; dose escalation", "result": "Six"}, {"measurement": "Severity of most adverse events", "setting": "[1]; dose escalation", "result": "mild to moderate"}, {"measurement": "Treatment-related bilirubin increases or Grade 4 transaminase elevations", "setting": "[1]; dose escalation", "result": "No treatment-related bilirubin increases or Grade 4 transaminase elevations were observed"}, {"measurement": "Maximum tolerated dose (MTD)", "setting": "[1]; dose escalation, 1Q3W", "result": "not reached; also recorded: no MTD was determined"}, {"measurement": "Most frequent adverse events", "setting": "[1]; patients receiving GEN1046", "result": "transaminase elevations, followed by hyperthyroidism, fatigue, nausea, asthenia and neutrophil count decrease"}, {"measurement": "Patients whose first post-baseline scan was indicative of response (RECIST v1.1)", "setting": "metastatic NSCLC", "result": "one"}]}
